Target: T1, soluble human CD40 extracellular domain (human, UniProt P25942 21-193)
T1 construct: Produced in house; also called hCD40; soluble hCD40 extracellular domain
Test: SPR, Ab captured from supernatant on protein A, hCD40 ECD analyte
Protocol: The titer data (Table 21) were used to normalize the antibody concentration in each supernatant to 3 μg/ml, and these antibodies were captured out of the supernatants on a protein A CMS Series S sensor chip (GE Healthcare), and tested for binding to two concentrations (5 nM and 50 nM) of soluble hCD40 extracellular domain.
CD40 binding SPR of antibody supernatants: Surface plasmon resonance (SPR) studies were conducted on a BIAcore™ T200 instrument (GE Healthcare, Chicago Ill.). A Series S Protein A sensor chip (GE Healthcare, Chicago Ill.) was equilibrated with SPR running buffer of 10 mM NaPO₄, 130 mM NaCl, 0.05% tween 20, (PBS-T) pH 7.2 at 25° C. The 96 antibody supernatants were normalized to a concentration of 3 μg/ml by diluting with PBS-T using a PerkinElmer JANUS® G3 system (PerkinElmer, Akron, Ohio). After priming the system, the 3 μg/ml antibody samples were captured on the protein A surface for 30 s at 10 μl/min Binding of 50 nM and 500 nM human CD40 extracellular domain (produced in house) was evaluated using association time of 180 s at 30 μl/min, followed by a dissociation time of 180 s at 30 μl/min Regeneration between cycles was accomplished using two 15 s injections of 10 mM glycine pH 1.5. […] Data were analyzed using BIAcore™ T200 evaluation software by fitting to a 1:1 Langmuir model.

T1 sequence (P25942 21-193 limits assumed): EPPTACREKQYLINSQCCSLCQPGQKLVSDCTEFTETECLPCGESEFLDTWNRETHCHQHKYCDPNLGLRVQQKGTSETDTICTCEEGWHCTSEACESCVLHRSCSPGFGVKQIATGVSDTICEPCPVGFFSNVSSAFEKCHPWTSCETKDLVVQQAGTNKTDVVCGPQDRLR

Row | Kd [nM] | Binder
1 | 4.6 | M39 (HC-K23E / LC-K45E) (antibody, human IgG1, kappa, IgG1-P238K; also called HC7/LC3) heavy: not shown light: DIQMTQSPSFLSASVGDRVTITCKASQDVSTAVAWYQQKPGKAPELLIYSASYRYTGVPSRFSGSGSGTDFTLTISSLQPEDFATYYCQQHYSTPWTFGGGTKVEIKRTVAAPSVFIFPPSDEQLKSGTASVVCLLNNFYPREAKVQWKVDNALQSGNSQESVTEQDSKDSTYSLSSTLTLSKADYEKHKVYACEVTHQGLSSPVTKSFNRGEC
2 | 3.1 | M40 (HC-R38Q,K63Q,R67Q / LC-K45E) (antibody, human IgG1, kappa, V domains shown, IgG1-P238K; also called HC8/LC3) VH: QVQLVQSGAEVKKPGSSVKVSCKASGYAFTSYWMHWVQQAPGQGLEWMGQINPTTGRSQYNEQFKTQVTITADKSTSTAYMELSSLRSEDTAVYYCARWGLQPFAYWGQGTLVTVSS VL: DIQMTQSPSFLSASVGDRVTITCKASQDVSTAVAWYQQKPGKAPELLIYSASYRYTGVPSRFSGSGSGTDFTLTISSLQPEDFATYYCQQHYSTPWTFGGGTKVEIKR
3 | 2.5 | M50 (HC-K12Q,K13Q / LC-K45Q,R54Q,R61Q) (antibody, human IgG1, kappa, IgG1-P238K; also called HC2/LC4) heavy: not shown light: DIQMTQSPSFLSASVGDRVTITCKASQDVSTAVAWYQQKPGKAPQLLIYSASYQYTGVPSQFSGSGSGTDFTLTISSLQPEDFATYYCQQHYSTPWTFGGGTKVEIKRTVAAPSVFIFPPSDEQLKSGTASVVCLLNNFYPREAKVQWKVDNALQSGNSQESVTEQDSKDSTYSLSSTLTLSKADYEKHKVYACEVTHQGLSSPVTKSFNRGEC
4 | 2.1 | M58 (HC-R67E / LC-K45Q,R54Q,R61Q) (antibody, human IgG1, kappa, V domains shown, IgG1-P238K; also called HC10/LC4) VH: QVQLVQSGAEVKKPGSSVKVSCKASGYAFTSYWMHWVRQAPGQGLEWMGQINPTTGRSQYNEKFKTEVTITADKSTSTAYMELSSLRSEDTAVYYCARWGLQPFAYWGQGTLVTVSS VL: DIQMTQSPSFLSASVGDRVTITCKASQDVSTAVAWYQQKPGKAPQLLIYSASYQYTGVPSQFSGSGSGTDFTLTISSLQPEDFATYYCQQHYSTPWTFGGGTKVEIKR
5 | 3.9 | M46 (HC-K74T / LC-K45E) (antibody, human IgG1, kappa, V domains shown, IgG1-P238K; also called HC14/LC3) VH: QVQLVQSGAEVKKPGSSVKVSCKASGYAFTSYWMHWVRQAPGQGLEWMGQINPTTGRSQYNEKFKTRVTITADTSTSTAYMELSSLRSEDTAVYYCARWGLQPFAYWGQGTLVTVSS VL: DIQMTQSPSFLSASVGDRVTITCKASQDVSTAVAWYQQKPGKAPELLIYSASYRYTGVPSRFSGSGSGTDFTLTISSLQPEDFATYYCQQHYSTPWTFGGGTKVEIKR
6 | 3 | M42 (HC-R67E / LC-K45E) (antibody, human IgG1, kappa, V domains shown, IgG1-P238K; also called HC10/LC3) VH: QVQLVQSGAEVKKPGSSVKVSCKASGYAFTSYWMHWVRQAPGQGLEWMGQINPTTGRSQYNEKFKTEVTITADKSTSTAYMELSSLRSEDTAVYYCARWGLQPFAYWGQGTLVTVSS VL: DIQMTQSPSFLSASVGDRVTITCKASQDVSTAVAWYQQKPGKAPELLIYSASYRYTGVPSRFSGSGSGTDFTLTISSLQPEDFATYYCQQHYSTPWTFGGGTKVEIKR
7 | 2.5 | M56 (HC-R38Q,K63Q,R67Q / LC-K45Q,R54Q,R61Q) (antibody, human IgG1, kappa, V domains shown, IgG1-P238K; also called HC8/LC4) VH: QVQLVQSGAEVKKPGSSVKVSCKASGYAFTSYWMHWVQQAPGQGLEWMGQINPTTGRSQYNEQFKTQVTITADKSTSTAYMELSSLRSEDTAVYYCARWGLQPFAYWGQGTLVTVSS VL: DIQMTQSPSFLSASVGDRVTITCKASQDVSTAVAWYQQKPGKAPQLLIYSASYQYTGVPSQFSGSGSGTDFTLTISSLQPEDFATYYCQQHYSTPWTFGGGTKVEIKR
8 | 3.8 | M48 (HC-K63Q / LC-K45E) (antibody, human IgG1, kappa, V domains shown, IgG1-P238K; also called HC16/LC3) VH: QVQLVQSGAEVKKPGSSVKVSCKASGYAFTSYWMHWVRQAPGQGLEWMGQINPTTGRSQYNEQFKTRVTITADKSTSTAYMELSSLRSEDTAVYYCARWGLQPFAYWGQGTLVTVSS VL: DIQMTQSPSFLSASVGDRVTITCKASQDVSTAVAWYQQKPGKAPELLIYSASYRYTGVPSRFSGSGSGTDFTLTISSLQPEDFATYYCQQHYSTPWTFGGGTKVEIKR
9 | 8.8 | M45 (HC-E46K,E62K / LC-K45E) (antibody, human IgG1, kappa, V domains shown, IgG1-P238K; also called HC13/LC3) VH: QVQLVQSGAEVKKPGSSVKVSCKASGYAFTSYWMHWVRQAPGQGLKWMGQINPTTGRSQYNKKFKTRVTITADKSTSTAYMELSSLRSEDTAVYYCARWGLQPFAYWGQGTLVTVSS VL: DIQMTQSPSFLSASVGDRVTITCKASQDVSTAVAWYQQKPGKAPELLIYSASYRYTGVPSRFSGSGSGTDFTLTISSLQPEDFATYYCQQHYSTPWTFGGGTKVEIKR
10 | 2.5 | M57 (HC-K63Q,R67E / LC-K45Q,R54Q,R61Q) (antibody, human IgG1, kappa, V domains shown, IgG1-P238K; also called HC9/LC4) VH: QVQLVQSGAEVKKPGSSVKVSCKASGYAFTSYWMHWVRQAPGQGLEWMGQINPTTGRSQYNEQFKTEVTITADKSTSTAYMELSSLRSEDTAVYYCARWGLQPFAYWGQGTLVTVSS VL: DIQMTQSPSFLSASVGDRVTITCKASQDVSTAVAWYQQKPGKAPQLLIYSASYQYTGVPSQFSGSGSGTDFTLTISSLQPEDFATYYCQQHYSTPWTFGGGTKVEIKR
11 | 14.7 | M60 (HC-R57E,K74Q / LC-K45Q,R54Q,R61Q) (antibody, human IgG1, kappa, V domains shown, IgG1-P238K; also called HC12/LC4) VH: QVQLVQSGAEVKKPGSSVKVSCKASGYAFTSYWMHWVRQAPGQGLEWMGQINPTTGESQYNEKFKTRVTITADQSTSTAYMELSSLRSEDTAVYYCARWGLQPFAYWGQGTLVTVSS VL: DIQMTQSPSFLSASVGDRVTITCKASQDVSTAVAWYQQKPGKAPQLLIYSASYQYTGVPSQFSGSGSGTDFTLTISSLQPEDFATYYCQQHYSTPWTFGGGTKVEIKR
12 | 17.2 | M44 (HC-R57E,K74Q / LC-K45E) (antibody, human IgG1, kappa, V domains shown, IgG1-P238K; also called HC12/LC3) VH: QVQLVQSGAEVKKPGSSVKVSCKASGYAFTSYWMHWVRQAPGQGLEWMGQINPTTGESQYNEKFKTRVTITADQSTSTAYMELSSLRSEDTAVYYCARWGLQPFAYWGQGTLVTVSS VL: DIQMTQSPSFLSASVGDRVTITCKASQDVSTAVAWYQQKPGKAPELLIYSASYRYTGVPSRFSGSGSGTDFTLTISSLQPEDFATYYCQQHYSTPWTFGGGTKVEIKR
13 | 3.5 | M55 (HC-K23E / LC-K45Q,R54Q,R61Q) (antibody, human IgG1, kappa, IgG1-P238K; also called HC7/LC4) heavy: not shown light: DIQMTQSPSFLSASVGDRVTITCKASQDVSTAVAWYQQKPGKAPQLLIYSASYQYTGVPSQFSGSGSGTDFTLTISSLQPEDFATYYCQQHYSTPWTFGGGTKVEIKRTVAAPSVFIFPPSDEQLKSGTASVVCLLNNFYPREAKVQWKVDNALQSGNSQESVTEQDSKDSTYSLSSTLTLSKADYEKHKVYACEVTHQGLSSPVTKSFNRGEC
14 | 3.3 | M41 (HC-K63Q,R67E / LC-K45E) (antibody, human IgG1, kappa, V domains shown, IgG1-P238K; also called HC9/LC3) VH: QVQLVQSGAEVKKPGSSVKVSCKASGYAFTSYWMHWVRQAPGQGLEWMGQINPTTGRSQYNEQFKTEVTITADKSTSTAYMELSSLRSEDTAVYYCARWGLQPFAYWGQGTLVTVSS VL: DIQMTQSPSFLSASVGDRVTITCKASQDVSTAVAWYQQKPGKAPELLIYSASYRYTGVPSRFSGSGSGTDFTLTISSLQPEDFATYYCQQHYSTPWTFGGGTKVEIKR
15 | 2.6 | M52 (HC-K12E / LC-K45Q,R54Q,R61Q) (antibody, human IgG1, kappa, IgG1-P238K; also called HC4/LC4) heavy: not shown light: DIQMTQSPSFLSASVGDRVTITCKASQDVSTAVAWYQQKPGKAPQLLIYSASYQYTGVPSQFSGSGSGTDFTLTISSLQPEDFATYYCQQHYSTPWTFGGGTKVEIKRTVAAPSVFIFPPSDEQLKSGTASVVCLLNNFYPREAKVQWKVDNALQSGNSQESVTEQDSKDSTYSLSSTLTLSKADYEKHKVYACEVTHQGLSSPVTKSFNRGEC
16 | 7.5 | M61 (HC-E46K,E62K / LC-K45Q,R54Q,R61Q) (antibody, human IgG1, kappa, V domains shown, IgG1-P238K; also called HC13/LC4) VH: QVQLVQSGAEVKKPGSSVKVSCKASGYAFTSYWMHWVRQAPGQGLKWMGQINPTTGRSQYNKKFKTRVTITADKSTSTAYMELSSLRSEDTAVYYCARWGLQPFAYWGQGTLVTVSS VL: DIQMTQSPSFLSASVGDRVTITCKASQDVSTAVAWYQQKPGKAPQLLIYSASYQYTGVPSQFSGSGSGTDFTLTISSLQPEDFATYYCQQHYSTPWTFGGGTKVEIKR
17 | 9.5 | M59 (HC-R57E / LC-K45Q,R54Q,R61Q) (antibody, human IgG1, kappa, V domains shown, IgG1-P238K; also called HC11/LC4) VH: QVQLVQSGAEVKKPGSSVKVSCKASGYAFTSYWMHWVRQAPGQGLEWMGQINPTTGESQYNEKFKTRVTITADKSTSTAYMELSSLRSEDTAVYYCARWGLQPFAYWGQGTLVTVSS VL: DIQMTQSPSFLSASVGDRVTITCKASQDVSTAVAWYQQKPGKAPQLLIYSASYQYTGVPSQFSGSGSGTDFTLTISSLQPEDFATYYCQQHYSTPWTFGGGTKVEIKR
18 | 3.3 | M64 (HC-K63Q / LC-K45Q,R54Q,R61Q) (antibody, human IgG1, kappa, V domains shown, IgG1-P238K; also called HC16/LC4) VH: QVQLVQSGAEVKKPGSSVKVSCKASGYAFTSYWMHWVRQAPGQGLEWMGQINPTTGRSQYNEQFKTRVTITADKSTSTAYMELSSLRSEDTAVYYCARWGLQPFAYWGQGTLVTVSS VL: DIQMTQSPSFLSASVGDRVTITCKASQDVSTAVAWYQQKPGKAPQLLIYSASYQYTGVPSQFSGSGSGTDFTLTISSLQPEDFATYYCQQHYSTPWTFGGGTKVEIKR
19 | 2.9 | M51 (HC-K12Q,K13Q,K23Q / LC-K45Q,R54Q,R61Q) (antibody, human IgG1, kappa, V domains shown, IgG1-P238K; also called HC3/LC4) VH: QVQLVQSGAEVQQPGSSVKVSCQASGYAFTSYWMHWVRQAPGQGLEWMGQINPTTGRSQYNEKFKTRVTITADKSTSTAYMELSSLRSEDTAVYYCARWGLQPFAYWGQGTLVTVSS VL: DIQMTQSPSFLSASVGDRVTITCKASQDVSTAVAWYQQKPGKAPQLLIYSASYQYTGVPSQFSGSGSGTDFTLTISSLQPEDFATYYCQQHYSTPWTFGGGTKVEIKR
20 | 11.7 | M43 (HC-R57E / LC-K45E) (antibody, human IgG1, kappa, V domains shown, IgG1-P238K; also called HC11/LC3) VH: QVQLVQSGAEVKKPGSSVKVSCKASGYAFTSYWMHWVRQAPGQGLEWMGQINPTTGESQYNEKFKTRVTITADKSTSTAYMELSSLRSEDTAVYYCARWGLQPFAYWGQGTLVTVSS VL: DIQMTQSPSFLSASVGDRVTITCKASQDVSTAVAWYQQKPGKAPELLIYSASYRYTGVPSRFSGSGSGTDFTLTISSLQPEDFATYYCQQHYSTPWTFGGGTKVEIKR

Reference: patent publication US20230203177A1 (Bristol-Myers Squibb, published 2023)
